Results: article PMC13572447, “USP5 acts as a proteolytic switch to control SDE2 function via UBL-directed cleavage” (Nature Communications, 2026)
Numbering of substitutions follows the chain as printed. Names may count otherwise.

T1: USP5 C335R, recombinant (human, UniProt P45974-1 1-858, C335R)
T1 construct: ubiquitin-specific protease 5 (USP5), human, Cys335 changed to Arg; source: E. coli BL21 (DE3), purified (Ni-NTA, SEC Superdex 200)
T1 sequence (looked up): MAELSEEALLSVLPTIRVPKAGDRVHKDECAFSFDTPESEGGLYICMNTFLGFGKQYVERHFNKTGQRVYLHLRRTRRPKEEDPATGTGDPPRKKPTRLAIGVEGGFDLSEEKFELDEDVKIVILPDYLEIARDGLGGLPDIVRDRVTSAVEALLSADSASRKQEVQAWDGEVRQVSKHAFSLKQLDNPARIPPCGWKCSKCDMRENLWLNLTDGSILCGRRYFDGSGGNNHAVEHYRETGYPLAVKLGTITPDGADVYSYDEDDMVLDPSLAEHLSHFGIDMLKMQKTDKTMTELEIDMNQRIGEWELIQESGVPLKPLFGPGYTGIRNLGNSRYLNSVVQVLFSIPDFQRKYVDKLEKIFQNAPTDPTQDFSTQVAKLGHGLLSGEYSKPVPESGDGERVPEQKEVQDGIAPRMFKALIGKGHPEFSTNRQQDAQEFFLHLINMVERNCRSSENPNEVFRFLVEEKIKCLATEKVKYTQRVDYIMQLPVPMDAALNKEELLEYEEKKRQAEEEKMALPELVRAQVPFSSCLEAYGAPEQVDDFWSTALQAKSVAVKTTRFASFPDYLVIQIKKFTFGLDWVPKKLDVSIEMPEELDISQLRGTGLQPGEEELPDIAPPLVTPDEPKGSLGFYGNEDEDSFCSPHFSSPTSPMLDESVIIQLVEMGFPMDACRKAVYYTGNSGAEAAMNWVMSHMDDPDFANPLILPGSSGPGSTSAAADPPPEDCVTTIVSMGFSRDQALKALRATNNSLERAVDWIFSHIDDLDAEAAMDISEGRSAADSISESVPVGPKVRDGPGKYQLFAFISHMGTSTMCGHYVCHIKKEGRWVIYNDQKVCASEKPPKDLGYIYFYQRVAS

B1: SDE2 ubiquitin-like domain, SDE2UBL(1-77) (domain or fragment, human, UniProt Q6IQ49-1 1-77, looked up)
chain: MAEAAALVWIRGPGFGCKAVRCASGRCTVRDFIHRHCQDQNVPVENFFVKCNGALINTSDTVQHGAVYSLEPRLCGG
notes: Silencing Defective 2 (SDE2), human, N-terminal ubiquitin-like domain, residues 1-77, ending in the free Gly76-Gly77 motif; also called SDE2 1-77; source: E. coli BL21 (DE3), purified (Ni-NTA, SUMO protease, reverse Ni-NTA, SEC Superdex 75); not shown: His, N-terminal, cleaved; SUMO, N-terminal, cleaved
B2: HA-SDE2UBL-PA activity-based probe (domain or fragment, human, UniProt Q6IQ49-1 1-76, looked up)
chain: MAEAAALVWIRGPGFGCKAVRCASGRCTVRDFIHRHCQDQNVPVENFFVKCNGALINTSDTVQHGAVYSLEPRLCG
modifications: C-terminal propargylamide: Gly77 replaced with a propargyl electrophilic warhead
notes: Silencing Defective 2 (SDE2), human, ubiquitin-like domain residues 1-76; Reacts covalently with the catalytic cysteine of the protease that recognises it; also called HA-SDE2UBL-ABP; SDE2UBL probe; not shown: HA, N-terminal, kept
B3: SDE2UBL without the terminal Gly77 (domain or fragment, human, UniProt Q6IQ49-1 1-76, looked up)
chain: B2 chain
notes: Silencing Defective 2 (SDE2), human, ubiquitin-like domain with the terminal Gly77 removed (residues 1-76); also called SDE2UBLΔG77
B4: wild-type USP5 (ubiquitin-specific protease 5), recombinant (enzyme, human, UniProt P45974-1 1-858, looked up)
chain: T1 sequence (looked up) with R335C
notes: ubiquitin-specific protease 5 (USP5), human; No removal of the His tag is described; the TR-FRET assay detects the His-tagged protein with an anti-His6 antibody; also called USP5^WT; His-USP5; source: E. coli BL21 (DE3), purified (Ni-NTA, SEC Superdex 200)
B5: catalytically inactive USP5 C335A, recombinant (enzyme, human, UniProt P45974-1 1-858, looked up)
chain: T1 sequence (looked up) with R335A
notes: ubiquitin-specific protease 5 (USP5), human, catalytic Cys335 changed to Ala; Named His-USP5^C335A in the TR-FRET assay; also called His-USP5^C335A; source: E. coli BL21 (DE3), purified (Ni-NTA, SEC Superdex 200)

Assays:
Settings in all cases: both partners purified
[1] = biological target: B4; assay: ITC; SDE2 construct or Ub titrated into USP5 construct; ITC200, 298 K; 50 mM HEPES, 100 mM NaCl, 1 mM TCEP, pH 7.5; duplicate experiments
[2] = biological target: B5; assay: as above
USP5 C335R, recombinant = biological target: T1, USP5 C335R, recombinant; assay: as above
[3] = biological target: B4; assay: activity-based probe labelling (covalent adduct on SDS-PAGE); purified DUB 1 µM with probe 2 µM in 50 mM Tris pH 7.5, 1 mM DTT, 37 °C; quenched with LDS/DTT; shows only the covalent probe-enzyme adduct as a band shift
[4] = biological target: T2, Ub-PA activity-based probe (His-Ub-PA) (human, UniProt P0CG48 1-75, C-terminal propargylamide (PA) warhead); assay: as above
T2 construct: ubiquitin residues 1-75; The plasmid name holds a 3C site between His and Ub; also called Ub-ABP; source: plasmid pTXB1_His-3C-Ub (1-75); obtained by the same method as HA-SDE2UBL-PA

[5] = biological target: T3, ubiquitin (monoubiquitin) (human, UniProt P0CG48 1-76); assay: HDX-MS; USP5^WT 6 µM with or without 200 µM ubiquitin or SDE2UBL, 30 min; 20 mM HEPES pH 7.5, 150 mM NaCl, 1 mM DTT; exchange 0.3 to 3000 s; pepsin digestion
T3 construct: ubiquitin, human

[6] = biological target: T3, ubiquitin (monoubiquitin); assay: ITC; SDE2 construct or Ub titrated into USP5 construct; ITC200, 298 K; 50 mM HEPES, 100 mM NaCl, 1 mM TCEP, pH 7.5; duplicate experiments

B1
Kd [1]: 26600 nM | Kd [2]: 1670 nM | stoichiometry N [2]: 2 | Kd (USP5 C335R, recombinant): 2150 nM | stoichiometry N (USP5 C335R, recombinant): 1

B2
binding result [3]: binds

B3
binding result [1]: binds

B4
binding result [4]: binds | binding result [5]: binds

B5
Kd [6]: 11.7 ± 9.1 nM
